Test results taken from patent US11077130.

Legend:
[1] = target: HIV-1 Env (strain and construct not stated); assay: SPR; antibody-Env mixture flowed over immobilized HJ16 (competitor: immobilized HJ16)
B.RHPA Env N160K (HIV-1) = assay: cell-based or functional assay
[2] = target: B.RHPA Env T278A R456W (HIV-1); assay: cell-based or functional assay
B.RHPA Env N276A (HIV-1) = assay: cell-based or functional assay
B.RHPA Env T278A (HIV-1) = assay: cell-based or functional assay
B.6240 gp120 (HIV-1) = assay: not stated (binding of B.6420 gp120 to mAbs)

| Substance | percent blocked [1] [%] | fold increase in IC50 (neutralization, mutant vs wild type) (B.RHPA Env N160K (HIV-1)) [fold] | fold increase in IC50 (neutralization, mutant vs wild type) [2] [fold] | fold increase in IC50 (neutralization, mutant vs wild type) (B.RHPA Env N276A (HIV-1)) [fold] | fold increase in IC50 (neutralization, mutant vs wild type) (B.RHPA Env T278A (HIV-1)) [fold] | quantity not named (value printed after the antibody's name) (B.6240 gp120 (HIV-1)) [nM] |
| --- | --- | --- | --- | --- | --- | --- |
| HJ16 (antibody) | 96 | 0.5 | > 1000 | > 10 | > 10 |  |
| PG9 (antibody) |  |  |  |  |  | 32.1 |
